Legend:
SHP2-C SH2 = assay: SH2 binding enrichment of the phosphorylated peptide, bacterial display (enrichment ratio); higher = better substrate or ligand; peptides without Tyr show the background
c-Src SH2 = assay: as above
Grb2 SH2 = Grb2 SH2 (UniProt P62993); assay: as above
FGFR3 = FGFR3 (UniProt P22607); assay: phosphorylation enrichment, bacterial display (enrichment ratio); higher = better substrate or ligand; peptides without Tyr show the background
AncSZ = assay: as above
Fes = Fes (UniProt P07332); assay: as above
Jak2 = Jak2 (UniProt O60674); assay: as above
Fyn = Fyn (UniProt P06241); assay: as above
Fyn, sequence (P06241 whole entry, looked up): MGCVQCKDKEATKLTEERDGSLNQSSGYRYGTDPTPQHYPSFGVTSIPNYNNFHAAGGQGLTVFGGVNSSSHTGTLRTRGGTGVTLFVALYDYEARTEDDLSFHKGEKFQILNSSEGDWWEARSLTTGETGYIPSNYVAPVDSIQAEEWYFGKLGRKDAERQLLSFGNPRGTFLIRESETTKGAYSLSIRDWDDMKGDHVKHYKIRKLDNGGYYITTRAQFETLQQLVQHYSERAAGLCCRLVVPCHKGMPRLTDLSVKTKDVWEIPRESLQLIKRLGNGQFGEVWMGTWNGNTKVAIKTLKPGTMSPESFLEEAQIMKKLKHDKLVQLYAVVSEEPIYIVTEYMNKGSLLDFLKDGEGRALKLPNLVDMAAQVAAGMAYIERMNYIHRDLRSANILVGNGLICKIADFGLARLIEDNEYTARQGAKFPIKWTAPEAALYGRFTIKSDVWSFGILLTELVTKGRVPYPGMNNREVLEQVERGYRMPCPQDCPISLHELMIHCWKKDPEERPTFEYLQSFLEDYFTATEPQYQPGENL

EPHB2 = EPHB2 (UniProt P29323); assay: as above
EPHB2, sequence (P29323 whole entry, looked up): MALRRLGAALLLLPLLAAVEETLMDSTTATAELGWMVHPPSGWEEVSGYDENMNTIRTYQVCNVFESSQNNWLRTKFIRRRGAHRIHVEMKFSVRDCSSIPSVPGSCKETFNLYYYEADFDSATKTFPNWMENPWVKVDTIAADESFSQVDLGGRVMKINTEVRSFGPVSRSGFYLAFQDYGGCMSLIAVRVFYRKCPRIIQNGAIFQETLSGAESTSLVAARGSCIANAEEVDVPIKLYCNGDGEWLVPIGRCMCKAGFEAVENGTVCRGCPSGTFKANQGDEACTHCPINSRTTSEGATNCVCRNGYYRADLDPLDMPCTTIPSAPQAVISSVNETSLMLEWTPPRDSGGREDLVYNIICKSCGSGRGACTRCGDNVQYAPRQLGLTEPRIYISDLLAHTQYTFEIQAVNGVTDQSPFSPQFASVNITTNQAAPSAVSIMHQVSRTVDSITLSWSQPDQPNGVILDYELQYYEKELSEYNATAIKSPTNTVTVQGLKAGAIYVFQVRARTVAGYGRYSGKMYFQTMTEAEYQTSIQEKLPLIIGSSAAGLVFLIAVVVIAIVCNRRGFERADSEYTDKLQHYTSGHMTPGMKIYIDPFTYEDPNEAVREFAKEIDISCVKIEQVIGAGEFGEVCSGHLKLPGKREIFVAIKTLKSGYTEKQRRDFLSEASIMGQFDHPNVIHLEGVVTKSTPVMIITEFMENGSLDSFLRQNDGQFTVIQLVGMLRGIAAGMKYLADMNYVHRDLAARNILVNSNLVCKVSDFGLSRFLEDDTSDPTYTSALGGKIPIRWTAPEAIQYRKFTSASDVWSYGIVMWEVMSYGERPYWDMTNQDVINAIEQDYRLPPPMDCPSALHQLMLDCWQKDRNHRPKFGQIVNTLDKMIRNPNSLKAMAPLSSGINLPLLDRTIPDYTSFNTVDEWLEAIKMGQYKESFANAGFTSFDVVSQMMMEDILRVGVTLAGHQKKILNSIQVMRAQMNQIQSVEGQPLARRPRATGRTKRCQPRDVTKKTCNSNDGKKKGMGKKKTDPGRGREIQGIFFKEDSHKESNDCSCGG

c-Abl (mouse) = assay: as above
Fer (mouse) = assay: as above
FGFR1 = FGFR1 (UniProt P11362); assay: as above
FGFR1, sequence (P11362 whole entry, looked up): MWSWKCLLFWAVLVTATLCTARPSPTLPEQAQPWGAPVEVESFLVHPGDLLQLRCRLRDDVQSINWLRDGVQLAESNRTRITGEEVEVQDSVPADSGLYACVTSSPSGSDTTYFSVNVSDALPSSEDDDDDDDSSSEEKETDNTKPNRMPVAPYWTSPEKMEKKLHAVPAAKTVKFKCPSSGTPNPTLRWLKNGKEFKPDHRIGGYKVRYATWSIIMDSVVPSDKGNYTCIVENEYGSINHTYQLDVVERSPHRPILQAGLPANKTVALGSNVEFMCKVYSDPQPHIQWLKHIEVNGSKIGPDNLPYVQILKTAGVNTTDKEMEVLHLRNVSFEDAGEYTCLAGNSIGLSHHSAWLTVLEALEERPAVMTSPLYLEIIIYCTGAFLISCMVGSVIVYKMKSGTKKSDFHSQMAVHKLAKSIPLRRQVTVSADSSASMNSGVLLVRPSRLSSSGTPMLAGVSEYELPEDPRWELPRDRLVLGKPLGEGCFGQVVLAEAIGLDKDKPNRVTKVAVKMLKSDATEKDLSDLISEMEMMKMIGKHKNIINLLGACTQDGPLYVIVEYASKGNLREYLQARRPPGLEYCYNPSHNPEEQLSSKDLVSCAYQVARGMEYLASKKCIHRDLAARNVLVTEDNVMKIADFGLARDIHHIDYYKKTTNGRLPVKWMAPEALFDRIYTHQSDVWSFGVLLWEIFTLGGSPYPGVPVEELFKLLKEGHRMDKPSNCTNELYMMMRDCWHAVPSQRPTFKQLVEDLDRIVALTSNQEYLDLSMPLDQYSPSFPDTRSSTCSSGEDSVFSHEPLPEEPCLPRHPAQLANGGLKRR

EPHB1 = EPHB1 (UniProt P54762); assay: as above
EPHB1, sequence (P54762 whole entry, looked up): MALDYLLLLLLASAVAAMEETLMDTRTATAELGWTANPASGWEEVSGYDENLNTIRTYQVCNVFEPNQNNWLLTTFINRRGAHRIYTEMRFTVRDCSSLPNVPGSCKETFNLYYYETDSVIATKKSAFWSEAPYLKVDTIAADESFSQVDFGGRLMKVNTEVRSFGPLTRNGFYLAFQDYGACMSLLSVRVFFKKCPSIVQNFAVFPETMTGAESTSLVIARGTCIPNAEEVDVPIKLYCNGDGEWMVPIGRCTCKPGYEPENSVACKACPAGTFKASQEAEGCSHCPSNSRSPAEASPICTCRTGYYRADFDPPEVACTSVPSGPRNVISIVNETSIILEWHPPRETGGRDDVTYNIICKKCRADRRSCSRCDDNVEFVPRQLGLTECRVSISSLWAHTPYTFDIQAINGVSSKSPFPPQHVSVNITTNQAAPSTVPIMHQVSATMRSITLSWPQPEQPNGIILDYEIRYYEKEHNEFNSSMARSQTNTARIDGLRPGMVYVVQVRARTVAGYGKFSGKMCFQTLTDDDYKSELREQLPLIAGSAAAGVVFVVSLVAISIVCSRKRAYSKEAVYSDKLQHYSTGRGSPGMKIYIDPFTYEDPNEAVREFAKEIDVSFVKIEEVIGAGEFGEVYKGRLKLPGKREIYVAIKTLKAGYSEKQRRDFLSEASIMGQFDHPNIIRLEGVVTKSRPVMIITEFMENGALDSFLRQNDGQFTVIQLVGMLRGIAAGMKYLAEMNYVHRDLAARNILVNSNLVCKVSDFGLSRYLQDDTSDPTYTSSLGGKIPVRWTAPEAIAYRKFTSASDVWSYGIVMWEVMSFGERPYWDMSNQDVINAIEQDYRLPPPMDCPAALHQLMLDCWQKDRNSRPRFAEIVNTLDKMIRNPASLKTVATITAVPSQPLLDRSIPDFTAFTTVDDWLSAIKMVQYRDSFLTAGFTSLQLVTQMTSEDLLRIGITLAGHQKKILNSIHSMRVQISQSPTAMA

c-Src = assay: as above
Hck = Hck (UniProt P08631); assay: as above
Hck, sequence (P08631 whole entry, looked up): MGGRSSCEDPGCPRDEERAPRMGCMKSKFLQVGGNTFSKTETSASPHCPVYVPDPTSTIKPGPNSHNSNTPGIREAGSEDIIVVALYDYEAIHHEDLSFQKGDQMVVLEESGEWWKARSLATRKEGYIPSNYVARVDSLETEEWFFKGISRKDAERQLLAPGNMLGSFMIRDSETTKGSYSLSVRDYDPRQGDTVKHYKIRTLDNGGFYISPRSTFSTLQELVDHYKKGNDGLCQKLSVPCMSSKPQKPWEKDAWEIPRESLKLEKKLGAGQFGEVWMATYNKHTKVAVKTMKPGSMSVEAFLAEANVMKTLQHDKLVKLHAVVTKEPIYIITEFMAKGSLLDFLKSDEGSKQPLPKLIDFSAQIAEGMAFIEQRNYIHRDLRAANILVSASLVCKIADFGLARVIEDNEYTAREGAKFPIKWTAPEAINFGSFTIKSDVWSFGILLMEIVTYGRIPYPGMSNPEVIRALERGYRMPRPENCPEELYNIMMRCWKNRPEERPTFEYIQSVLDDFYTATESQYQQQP

MERTK = MERTK (UniProt Q12866); assay: as above
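Wherever SH2 binding enrichment of the phosphorylated peptide, bacterial display is given: peptide library displayed on the E. coli surface as eCPX fusions, selected cells deep-sequenced, score is each peptide's frequency after selection divided by its frequency in the input.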
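Wherever phosphorylation enrichment, bacterial display is given: 11-residue human phosphosite peptides and single-mutation variants displayed on the E. coli surface, counted by deep sequencing, each peptide's frequency after selection divided by its frequency in the unselected input library; frequency after pTyr selection over input frequency; kinase dosed for 20-30% of maximal phosphorylation in three min.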

FGFR3, sequence (P22607 whole entry, looked up): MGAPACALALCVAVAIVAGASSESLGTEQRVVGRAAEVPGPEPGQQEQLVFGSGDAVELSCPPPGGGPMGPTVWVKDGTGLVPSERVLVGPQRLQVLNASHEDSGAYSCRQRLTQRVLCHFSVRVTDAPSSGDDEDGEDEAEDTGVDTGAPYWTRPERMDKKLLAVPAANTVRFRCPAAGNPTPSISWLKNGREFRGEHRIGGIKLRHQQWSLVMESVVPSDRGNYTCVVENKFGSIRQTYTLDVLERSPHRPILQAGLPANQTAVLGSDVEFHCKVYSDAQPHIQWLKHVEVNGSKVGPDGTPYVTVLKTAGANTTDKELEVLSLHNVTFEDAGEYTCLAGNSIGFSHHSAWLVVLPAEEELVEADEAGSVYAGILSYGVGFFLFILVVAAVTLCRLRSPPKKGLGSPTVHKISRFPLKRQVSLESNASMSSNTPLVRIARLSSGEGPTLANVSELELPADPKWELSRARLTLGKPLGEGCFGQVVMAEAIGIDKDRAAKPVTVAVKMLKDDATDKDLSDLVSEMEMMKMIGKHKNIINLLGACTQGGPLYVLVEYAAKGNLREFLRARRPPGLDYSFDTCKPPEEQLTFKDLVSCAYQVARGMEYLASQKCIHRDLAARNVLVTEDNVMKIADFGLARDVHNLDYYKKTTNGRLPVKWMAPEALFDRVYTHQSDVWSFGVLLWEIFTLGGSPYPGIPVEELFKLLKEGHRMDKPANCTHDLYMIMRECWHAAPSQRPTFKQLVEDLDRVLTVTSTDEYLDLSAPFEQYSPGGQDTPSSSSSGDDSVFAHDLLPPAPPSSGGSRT

Sequence | SH2 binding enrichment (SHP2-C SH2) | SH2 binding enrichment (c-Src SH2) | SH2 binding enrichment (Grb2 SH2) | phosphorylation enrichment (FGFR3) | phosphorylation enrichment (AncSZ) | phosphorylation enrichment (Fes) | phosphorylation enrichment (Jak2) | phosphorylation enrichment (Fyn) | phosphorylation enrichment (EPHB2) | phosphorylation enrichment (c-Abl (mouse)) | phosphorylation enrichment (Fer (mouse)) | phosphorylation enrichment (FGFR1) | phosphorylation enrichment (EPHB1) | phosphorylation enrichment (c-Src) | phosphorylation enrichment (Hck) | phosphorylation enrichment (MERTK)
IRTIDYRFTVW [IDS_Y497_YF] | 0.868 | 0.528 | 0.923 | 0.741 | 1.11 | 1.2 | 1.09 | 0.423 | 0.614 | 0.735 | 0.557 | 0.41 | 0.629 | 0.39 | 0.489 | 0.402
NYAKMYCNPDA [KNL1_Y489] | 0.531 | 2.11 | 0.795 | 0.667 | 1.12 | 1.1 | 1.17 | 0.463 | 0.608 | 0.989 | 0.59 | 0.561 | 0.673 | 0.626 | 0.518 | 0.498
RFQKLYLDRNL [IGFALS_Y248_L244F] | 0.771 | 0.463 | 0.793 | 0.655 | 0.726 | 0.761 | 0.538 | 0.492 | 0.509 | 0.486 | 0.224 | 0.636 | 0.529 | 0.332 | 0.569 | 0.342
RRAKGYPINLY [ITGB2_Y125_D128N] | 0.55 | 0.484 | 0.764 | 0.605 | 0.762 | 0.932 | 0.693 | 0.963 | 0.853 | 0.535 | 0.656 | 0.814 | 0.707 | 0.7 | 0.912 | 0.623
GYKVRYATGSI [FGFR1_Y210_W213G] | 1.11 | 1.03 | 1.1 | 0.423 | 0.499 | 0.625 | 0.456 | 0.401 | 0.479 | 0.478 | 0.34 | 0.416 | 0.537 | 0.398 | 0.434 | 0.32
CTTIRYNYMCN [TP53_Y234_H233R] | 1.55 | 3.56 | 1.48 | 0.544 | 0.787 | 0.81 | 0.674 | 0.464 | 0.583 | 0.491 | 0.479 | 0.475 | 0.461 | 0.417 | 0.449 | 0.457

Now from value to sequence, other results behind:

SH2 binding enrichment (SHP2-C SH2) | SH2 binding enrichment (c-Src SH2) | SH2 binding enrichment (Grb2 SH2) | Sequence | phosphorylation enrichment (FGFR3) | phosphorylation enrichment (AncSZ) | phosphorylation enrichment (Fes) | phosphorylation enrichment (Jak2) | phosphorylation enrichment (Fyn) | phosphorylation enrichment (EPHB2) | phosphorylation enrichment (c-Abl (mouse)) | phosphorylation enrichment (Fer (mouse)) | phosphorylation enrichment (FGFR1) | phosphorylation enrichment (EPHB1) | phosphorylation enrichment (c-Src) | phosphorylation enrichment (Hck) | phosphorylation enrichment (MERTK)
1.3 | 1.24 | 1.63 | KMKGEYFRFLA [YWHAG_Y130_D129E_YF] | 2.58 | 0.791 | 0.93 | 2.04 | 1.75 | 0.567 | 1.4 | 0.7 | 3.77 | 0.678 | 2.76 | 0.783 | 0.598
0.913 | 0.496 | 1.04 | PFVFFYSFLLK [PTEN_Y178_R173P_YF] | 1.25 | 1.99 | 2.12 | 2.1 | 0.679 | 0.686 | 1.52 | 0.983 | 0.751 | 1.07 | 0.577 | 0.983 | 0.931
0.588 | 0.517 | 0.752 | AVLALHNSTRD [TGFB1_Y81_Y81H] | 0.387 | 0.546 | 0.647 | 0.519 | 0.423 | 0.323 | 0.494 | 0.38 | 0.346 | 0.354 | 0.322 | 0.359 | 0.398

Reference: the supplement of paper PMC10065799, “High-throughput profiling of sequence recognition by tyrosine kinases and SH2 domains using bacterial peptide display” (eLife, 2023)
